Measurements from patent publication US7655759 (VRIJE UNIVERSITEIT BRUSSEL, dated 2010).

How the values were obtained:
Protein A = molecular target: T1, Protein A (UniProt P38507 37-477); assay: Protein A-Sepharose chromatography
T1 construct: also called Protein A-SEPHAROSE

Hen Egg Lysozyme = molecular target: T2, Hen Egg Lysozyme (hen, UniProt P00698 19-147); assay: inhibition ELISA, binding competed with free antigen
T2 construct: also called HEL

[1] = molecular target: T3, recombinant C fragment of tetanus neurotoxin (Clostridium tetani, UniProt P04958 865-1315); assay: ELISA, bacterial extract
T3 construct: domain: C fragment
T3 sequence: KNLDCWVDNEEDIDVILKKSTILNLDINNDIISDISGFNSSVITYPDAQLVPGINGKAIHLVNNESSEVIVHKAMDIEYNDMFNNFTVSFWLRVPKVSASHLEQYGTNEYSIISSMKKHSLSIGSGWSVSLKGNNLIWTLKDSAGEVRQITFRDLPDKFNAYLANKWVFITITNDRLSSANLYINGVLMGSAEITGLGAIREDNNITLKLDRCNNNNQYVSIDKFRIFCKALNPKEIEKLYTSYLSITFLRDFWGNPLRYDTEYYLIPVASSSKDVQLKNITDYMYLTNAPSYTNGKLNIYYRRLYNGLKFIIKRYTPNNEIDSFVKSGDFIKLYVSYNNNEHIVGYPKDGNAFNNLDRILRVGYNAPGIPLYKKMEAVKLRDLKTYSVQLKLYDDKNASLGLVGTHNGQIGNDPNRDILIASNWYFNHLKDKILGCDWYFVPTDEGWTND

B1: camel VHH α-LYS3 (anti-lysozyme) (VHH)
VHH: DVQLQASGGGSVQAGGSLRLSCAASGYTIGPYCMGWFRQAPGKEREGVAAINMGGGITYYADSVKGRFTISQDNAKNTVYLLMNSLEPEDTAIYYCAADSTIYASYYECGHGLSTGGYGYDSWGQGTQVTVSS
notes: also called LYS3 VHH; pHEN4-αLYS3
In the case of B1, the binding result (Protein A) is reported as “no binding” and the Ki (Hen Egg Lysozyme) is reported as roughly 500 nM.

B2: camel VHH αTT2 (anti-tetanus toxoid) (VHH)
VHH: EVQLQASGGGSVQAGGSLRLSCTAANYAFDSKTVGWFRQVPGKEREGVAGISSGGSTTAYSDSVKGRYTVSLENAKNTVYLLIDNLQPEDTAIYYCAGVSGWRGRQWLLLAETYRFWGQGTQVTVSS
B2: no binding [1].

B3: camel VHH α-LYS2 (anti-lysozyme) (VHH)
VHH: EVQLQASGGGSVQAGQSLRLSCATSGATSSSNCMGWFRQAPGKEREGVAVIDTGRGNTAYADSVQGRLTISLDNAKNTLYLQMNSLKPEDTAMYYCAADTSTWYRGYCGTNPNYFSYWGQGTQVTVSS
notes: also called LYS2 VHH; pHEN4-αLYS2
B3 showed a Ki (Hen Egg Lysozyme) of roughly 50 nM.
